Laboratory results published in patent publication US20100022453A1 (UNIVERSITY OF ROCHESTER, published 2010).

T1: NgR1-Fc (mouse NogoR/Fc, R&D Systems) (mouse, UniProt Q99PI8 27-447)
T1 construct: also called soluble NgR1-Fc
T1 sequence (looked up): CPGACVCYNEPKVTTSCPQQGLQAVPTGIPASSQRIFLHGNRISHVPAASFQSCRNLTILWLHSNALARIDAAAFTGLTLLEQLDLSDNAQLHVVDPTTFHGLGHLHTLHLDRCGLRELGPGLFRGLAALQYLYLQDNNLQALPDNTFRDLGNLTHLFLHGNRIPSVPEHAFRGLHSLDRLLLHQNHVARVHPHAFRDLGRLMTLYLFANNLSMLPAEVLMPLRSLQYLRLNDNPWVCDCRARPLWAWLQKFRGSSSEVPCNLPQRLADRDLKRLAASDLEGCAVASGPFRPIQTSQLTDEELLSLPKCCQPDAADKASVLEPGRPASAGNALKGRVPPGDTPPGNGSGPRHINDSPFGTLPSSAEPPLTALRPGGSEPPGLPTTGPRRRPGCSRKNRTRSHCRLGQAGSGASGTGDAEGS

B1: Nogo66-Npn1 (human Nogo66 fused to the transmembrane and cytoplasmic portion of rat neuropilin-1) on COS-7 cells (other, human;rat, UniProt Q9NQC3 1055-1120, looked up)
chain: RIYKGVIQAIQKSDEGHPFRAYLESEVAISEELVQKYSNSALGHVNCTIKELRRLFLVDDLVDSLKILITIIAMSALGVLLGAVCGVVLYCACWHNGMSERNLSALENYNFELVDGVKLKKDKLNPQSNYSEA
notes: domain: Nogo66;domain: transmembrane and cytoplasmic portion; Chimeric cell-surface form of Nogo66; also called Nogo66-Npn1 in COS cells
B2: rat NgR2, full-length, expressed on COS-7 cells (receptor)
chain: CPMLCTCYSSPPTVSCQANNFSSVPLSLPPSTQRLFLQNNLIRSLRPGTFGPNLLTLWLFSNNLSTIYPGTFRHLQALEELDLGDNRHLRSLEPDTFQGLERLQSLHLYRCQLSSLPGNIFRGLVSLQYLYLQENSLLHLQDDLFADLANLSHLFLHGNRLRLLTEHVFRGLGSLDRLLLHGNRLQGVHRAAFHGLSRLTILYLFNNSLASLPGEALADLPALEFLRLNANPWACDCRARPLWAWFQRARVSSSDVTCATPPERQGRDLRTLRDTDFQACPPPTPTRPGSRARGNSSSNHLYGVAEAGAPPADPSTLYRDLPAEDSRGRQGGDAPTEDDYWGGYGGEDQRGEQTCPGAAC
notes: also called NgR2 in COS cells
B3: AP-FGF4 (mouse) (ligand, UniProt P11403 30-202, looked up)
chain: APNGTRHAELGHGWDGLVARSLARLPVAAQPPQAAVRSGAGDYLLGLKRLRRLYCNVGIGFHLQVLPDGRIGGVHADTRDSLLELSPVQRGVVSIFGVASRFFVAMSSRGKLFGVPFFTDECKFKEILLPNNYNAYESYAYPGMFMALSKNGRTKKGNRVSPTMKVTHFLPRL
notes: not shown: human placental alkaline phosphatase (AP) tag
B4: AP-FGF2 (mouse), alkaline phosphatase tagged FGF2 (ligand, UniProt P15655 10-154, looked up)
chain: PALPEDGGAAFPPGHFKDPKRLYCKNGGFFLRIHPDGRVDGVREKSDPHVKLQLQAEERGVVSIKGVCANRYLAMKEDGRLLASKCVTEECFFFERLESNNYNTYRSRKYSSWYVALKRTGQYKLGSKTGPGQKAILFLPMSAKS
notes: also called bFGF; basic FGF; not shown: human placental alkaline phosphatase (AP) tag
B5: rat NgR3 expressed on COS-7 cells (receptor, UniProt Q80WD0 25-424, looked up)
chain: CPRDCVCYPSPMTVSCQAHNFAAIPEGIPEDSERIFLQNNHITFLQQGHFSPAMVTLWIYSNNITFIAPNTFEGFVHLEELDLGDNRQLRTLAPETFQGLVKLHALYLYKCGLSSLPAGIFGGLHSLQYLYLQDNHIEYLQDDIFVDLVNLSHLFLHGNKLWSLGQGIFRGLVNLDRLLLHENQLQWVHHKAFHDLHRLTTLFLFNNSLTELQGDCLAPLVALEFLRLNGNAWDCGCRARSLWEWLRRFRGSSSVVPCATPELRQGQDLKSLRVEDFRNCTGPASPHQIKSHTLSTSDRAARKEHHPSHGASRDKGHPHGHLPGSRSGSKKPGKNCTSHRNRNQISKGSAGKELPELQDYAPDYQHKFSFDIMPTARPKRKGKCARRTPIRAPSGVQQAS
notes: whole, on cells; also called NgR3 in COS cells
B6: rat NgR1 (Nogo-66 receptor), full-length, expressed on cells (receptor)
chain: CPGACVCYNEPKVTTSCPQQGLQAVPTGIPASSQRIFLHGNRISYVPAASFQSCRNLTILWLHSNALAGIDAAAFTGLTLLEQLDLSDNAQLRVVDPTTFRGLGHLHTLHLDRCGLQELGPGLFRGLAALQYLYLQDNNLQALPDNTFRDLGNLTHLFLHGNRIPSVPEHAFRGLHSLDRLLLHQNHVARVHPHAFRDLGRLMTLYLFANNLSMLPAEVLVPLRSLQYLRLNDNPWVCDCRARPLWAWLQKFRGSSSEVPCNLPQRLAGRDLKRLAASDLEGCAVASGPFRPFQTNQLTDEELLGLPKCCQPDAADKASVLEPGRPASAGNALKGRVPPGDTPPGNGSGPRHINDSPFGTLPGSAEPPLTALRPGGSEPPGLPTTGPRRRPGCSRKNRTRSHCRLGQAGSGSSGTGDAEGS
notes: also called Nogo receptor NgR1; NgR1 in COS cells
B7: AP-FGF8 (mouse) (ligand, UniProt P37237-2 23-215, looked up)
chain: QVTVQSSPNFTQHVREQSLVTDQLSRRLIRTYQLYSRTSGKHVQVLANKRINAMAEDGDPFAKLIVETDTFGSRVRVRGAETGLYICMNKKGKLIAKSNGKGKDCVFTEIVLENNYTALQNAKYEGWYMAFTRKGRPRKGSKTRQHQREVHFMKRLPRGHHTTEQSLRFEFLNYPPFTRSLRGSQRTWAPEPR
notes: also called FGF8b; not shown: human placental alkaline phosphatase (AP) tag
B8: AP-FGF21 (mouse) (ligand, UniProt Q9JJN1 29-210, looked up)
chain: AYPIPDSSPLLQFGGQVRQRYLYTDDDQDTEAHLEIREDGTVVGAAHRSPESLLELKALKPGVIQILGVKASRFLCQQPDGALYGSPHFDPEACSFRELLLEDGYNVYQSEAHGLPLRLPQKDSPNQDATSWGPVRFLPMPGLLHEPQDQAGFLPPEPPDVGSSDPLSMVEPLQGRSPSYAS
notes: as for B3

Assays:
[1] = molecular target: T2, AP-sNgR1^CT+stalk (Phe278-Glu445) (human; rat); assay: AP-fusion protein binding to transfected COS-7 cells; (-) = no binding above background
T2 construct: Expressed in HEK293T cells and used as conditioned supernatant

[2] = molecular target: T3, AP-FGF9 (mouse) (human; mouse, UniProt P54130 4-208); assay: AP-ligand binding to NgR2 on COS-7 cells
Procedure: (§1) Techniques for ligand binding to NgR1 on COS cells is described in detail in Venkatesh et al. (2005) Journal of Neuroscience 25:808-22, which is incorporated herein by reference in its entirety at least for the methods taught therein. Briefly, receptor constructs were expressed transiently in COS-7 cells in 24-well plates coated with poly-D-lysine (PDL; 50 μg/ml), using Lipofectamine 2000. At 24 h after transfection the cells were rinsed and incubated for 75 min at ambient temperature with alkaline phosphatase tagged FGF1, FGF2, FGF4, FGF8, FGF9, and FGF21. To monitor bound ligand, plates were developed with NBT/BCIP substrate; the color reaction was stopped by two rinses in PBS. For quantification of ligand binding the cells were processed as described above; after ligand incubation the cells were rinsed in HBHA and lysed in 20 mM Tris, pH 8.0, 0.1% Triton X-100. The lysates were incubated at 65° C. for 60 min and spun at 10,000×g for 5 min. The relative AP activity in supernatants was normalized to cell surface receptor expression, using anti-myc (1:1000), anti-NgR1 (1:1000), anti-NgR2 (1:1000), or anti-NgR3 (1:200) antibodies, as described previously (Giger et al., Neuron 21:1079-92, 1998). Scatchard plot analysis was performed analogous to a previous study (Kolodkin et al., Cell 90:753-62, 1997).

[3] = molecular target: B2; assay: AP-ligand binding to NgR2 on COS cells
Procedure: as §1

[4] = molecular target: B6; assay: AP-ligand binding to NgR1 on COS cells
Procedure: as §1

[5] = molecular target: B6; assay: AP-tagged ligand binding to NgR1 on COS cells
Procedure: as §1

[6] = molecular target: T1, NgR1-Fc (mouse NogoR/Fc, R&D Systems); assay: affinity precipitation with NgR1-Fc on Protein A/G beads, anti-AP Western blot
Procedure: NgR1-Fc (0.5 μg, R&D Systems) and AP-tagged ligands (1.5 nM final conc.) were mixed in DMEM containing 0.1% BSA and protease inhibitor cocktail and were incubated at 4° C. for 2 h. AP-ligands bound to NgR1-Fc were precipitated with Protein A/G agarose beads after 2 h at 4° C. Samples were rinsed extensively in washing buffer (20 mM Tris-HCl, pH 7.5, 150 mM NaCl, 1% NP40, 5 mM EDTA) and analyzed by Western blotting using an anti-AP antibody. For cross-linking experiments, NgR1-Fc, FGFR1D(IIIb)/Fc, TROY-Fc, or ephrinB3-Fc (R&D Systems) (each at 13 nM), were incubated with 40 nM ¹²⁵I-FGF2 (specific activity: ˜50 μCi/μg, MP Biochem.) with or without the indicated concentrations of cold FGF2 or insulin for 2 h at room temperature in PBS. Cross-linking was initiated by adding BS³ (bis[sulfosuccinimidyl]suberate, Pierce, Rockford, Ill.) to a final concentration of 2 mM and incubating for 30 min at room temperature. The reaction was stopped by adding 2 μl of 1 M Tris-HCl (pH 7.4) and protein complexes were analyzed by SDS-PAGE. Gels were subsequently fixed, dried, and subjected to autoradiography.

[7] = molecular target: B2; assay: AP-ligand binding to NgR2 on COS-7 cells
Procedure: as §1

[8] = molecular target: B6; assay: Scatchard plot analysis of AP-ligand binding to NgR1 on COS-7 cells
Procedure: as §1, with “The relative AP activity in supernatants was normalized to cell surface receptor expression, using anti-myc (1:1000), anti-NgR1 (1:1000), anti-NgR2 (1:1000), or anti-NgR3 (1:200) antibodies, as described previously (Giger et al., Neuron 21:1079-92, 1998). Scatchard plot analysis was performed analogous to a previous study (Kolodkin et al., Cell 90:753-62, 1997).” left out
To address whether NgR1 interacts directly with FGF2, affinity precipitation experiments were performed. […] The complexes of ¹²⁵I-FGF2:NgR1-Fc and ¹²⁵I-FGF2:FGFR1-Fc run at apparent molecular weights of 220- and 250-kDa and higher molecular weight complexes containing ¹²⁵I-FGF2 are detected as well (FIG. 3C).

[9] = molecular target: T3, AP-FGF9 (mouse); assay: AP-ligand binding to NgR1 on COS-7 cells
Procedure: as §1

[10] = molecular target: B6; assay: AP-ligand binding to NgR1 on COS-7 cells
Procedure: as §1

T2 sequence (P05187 other isoform, or with tags, fused parts or gaps): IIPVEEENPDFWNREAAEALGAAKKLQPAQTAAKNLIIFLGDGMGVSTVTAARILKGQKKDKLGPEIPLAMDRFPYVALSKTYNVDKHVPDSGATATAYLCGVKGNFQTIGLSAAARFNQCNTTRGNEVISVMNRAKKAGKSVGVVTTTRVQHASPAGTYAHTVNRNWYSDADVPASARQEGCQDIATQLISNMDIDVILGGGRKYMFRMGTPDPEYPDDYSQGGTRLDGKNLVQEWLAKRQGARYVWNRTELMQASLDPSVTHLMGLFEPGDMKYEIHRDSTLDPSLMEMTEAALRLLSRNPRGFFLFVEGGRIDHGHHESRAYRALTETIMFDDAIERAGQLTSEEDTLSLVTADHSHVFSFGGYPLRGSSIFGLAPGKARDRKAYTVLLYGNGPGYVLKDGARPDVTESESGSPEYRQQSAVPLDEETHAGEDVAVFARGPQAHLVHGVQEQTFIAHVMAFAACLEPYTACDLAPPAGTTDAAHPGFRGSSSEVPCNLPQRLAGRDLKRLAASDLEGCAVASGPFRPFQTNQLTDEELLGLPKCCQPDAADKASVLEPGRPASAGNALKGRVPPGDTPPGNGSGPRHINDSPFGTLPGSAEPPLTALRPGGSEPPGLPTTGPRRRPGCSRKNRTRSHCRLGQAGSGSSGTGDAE

Binder: B1
binding result [1]: no binding

Binder: B2
binding result [1]: no binding | binding result [2]: no binding

Binder: B3
binding result [3]: no binding | binding result [4]: binds

Binder: B4
Kd [5]: ~10 nM | binding result [6]: binds | binding result [7]: no binding | Kd [8]: 16.9 nM

Binder: B5
binding result [1]: no binding

Binder: B6
binding result [9]: no binding | binding result [1]: no binding

Binder: B7
binding result [3]: no binding | binding result [10]: no binding

Binder: B8
binding result [3]: no binding | binding result [10]: no binding
